Measured values: patent US20230287120A1 (ALLOGENE THERAPEUTICS, published 2023)

Key:
[1] = target: T1, Flag tagged recombinant DLL3 (Adipogen) (Homo sapiens (Human), UniProt Q9NYJ7 27-492); assay: flow cytometry, percent of T cells that recognise recombinant DLL3, Donor 116
T1 construct: Bought reagent; also called Flag-DLL3
T1 sequence: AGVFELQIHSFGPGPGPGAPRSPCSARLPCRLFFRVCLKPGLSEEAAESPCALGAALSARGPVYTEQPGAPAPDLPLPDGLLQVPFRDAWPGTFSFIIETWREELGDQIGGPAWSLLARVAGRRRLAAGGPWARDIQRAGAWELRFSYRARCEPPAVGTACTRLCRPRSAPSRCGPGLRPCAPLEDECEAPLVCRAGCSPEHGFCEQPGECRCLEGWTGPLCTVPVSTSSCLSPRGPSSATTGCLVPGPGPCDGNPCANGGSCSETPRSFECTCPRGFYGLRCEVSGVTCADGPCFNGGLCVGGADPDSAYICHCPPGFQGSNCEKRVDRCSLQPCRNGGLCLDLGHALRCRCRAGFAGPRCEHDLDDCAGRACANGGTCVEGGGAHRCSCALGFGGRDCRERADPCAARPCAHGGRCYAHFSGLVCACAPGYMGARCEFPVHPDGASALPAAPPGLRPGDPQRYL

[2] = target: T1, Flag tagged recombinant DLL3 (Adipogen); assay: flow cytometry, percent of T cells that recognise recombinant DLL3, Donor 117
[3] = target: T1, Flag tagged recombinant DLL3 (Adipogen); assay: flow cytometry, primary T cells with the CAR, 1 ug/ml Flag tagged recombinant DLL3, PE anti-Flag

B1: 2A6.C5 (other)
CAR: QVQLQESGPGLVKPSETLSLTCTVSNVSISSYYWSWIRQPPGKGLEWIGYIYYSGTTNYNPSLKSRVTMSVDTSKNQFSLKLSSVTAADTAVYFCARLSNWGFAFDIWGQGTMVTFSSGGGGSGGGGSGGGGSGGGGSEIVLTQSPGTLSLSPGERATLSCRASQTISSSYLAWYQQKPGQAPRLLIYGASSRATGIPDRFSGSGSGTEFTLTISRLEPEDFAVYYCQQYGWSPITFGQGTRLEIKTTTPAPRPPTPAPTIASQPLSLRPEACRPAAGGAVHTRGLDFACDIYIWAPLAGTCGVLLLSLVITKRGRKKLLYIFKQPFMRPVQTTQEEDGCSCRFPEEEEGGCELRVKFSRSADAPAYQQGQNQLYNELNLGRREEYDVLDKRRGRDPEMGGKPRRKNPQEGLYNELQKDKMAEAYSEIGMKGERRRGKGHDGLYQGLSTATKDTYDALHMQALPPR
notes: also called anti-DLL3 CAR with 2A6.C5 scFv, on primary T cells
In the case of B1, the Transduction efficiency [1] is reported as 37.2%, the Transduction efficiency [2] is reported as 37.7% and the “Rec-DLL3 gate, percent of live CD3+ cells” value (from here on “Rec-DLL3 gate, percent”) [3] is reported as 37.2%.

B2: 2D3 (other)
CAR: QVQLQESGPGLVKPSETLSLTCTVSDNSISNYYWSWIRQPPGKGLEWIAYIYYSGTTNYNPSLKSRVTISLDTSKNQFSLKLSSVTAADTAVYYCARLFNWGFAFDIWGQGTMVTVSSGGGGSGGGGSGGGGSGGGGSEIVMTQSPATLSVSPGERATLSCRASQSVSSNLAWYQQKPGQAPRLLIYGASTRATGIPARFSGSGSGTEFTLTISSLQSEDFAVYYCQQYNNWPLTFGGGTKVEIKTTTPAPRPPTPAPTIASQPLSLRPEACRPAAGGAVHTRGLDFACDIYIWAPLAGTCGVLLLSLVITKRGRKKLLYIFKQPFMRPVQTTQEEDGCSCRFPEEEEGGCELRVKFSRSADAPAYQQGQNQLYNELNLGRREEYDVLDKRRGRDPEMGGKPRRKNPQEGLYNELQKDKMAEAYSEIGMKGERRRGKGHDGLYQGLSTATKDTYDALHMQALPPR
notes: also called anti-DLL3 CAR with 2D3 scFv, on primary T cells
For B2, the Transduction efficiency [1] was 46.1%, the Transduction efficiency [2] was 47.4% and the “Rec-DLL3 gate, percent” value [3] was 46.1%.

B3: 5A2 (other)
CAR: QVQLQESGPGLMKPSETLSLTCTVSGGSISSSYWSCIRQPPGKGLEWIGYIYYSGTTNYNPSLKSRVTLSLDTSKNQFSLRLTSVTAADTAVYYCARVAPTGFWFDYWGQGTLVTVSSGGGGSGGGGSGGGGSGGGGSEIVLTQSPGTLSLSPGERATLSCRASQRVSSRYLAWYQQKPGQAPRLLIYGASSRATGIPDRFSGSGSGTDFTLTISRLEPEEFAVYYCQQYGTSPLTFGGGTKVEIKTTTPAPRPPTPAPTIASQPLSLRPEACRPAAGGAVHTRGLDFACDIYIWAPLAGTCGVLLLSLVITKRGRKKLLYIFKQPFMRPVQTTQEEDGCSCRFPEEEEGGCELRVKFSRSADAPAYQQGQNQLYNELNLGRREEYDVLDKRRGRDPEMGGKPRRKNPQEGLYNELQKDKMAEAYSEIGMKGERRRGKGHDGLYQGLSTATKDTYDALHMQALPPR
notes: also called anti-DLL3 CAR with 5A2 scFv, on primary T cells
In the case of B3, the Transduction efficiency [1] is reported as 49.1%, the Transduction efficiency [2] is reported as 47.4% and the “Rec-DLL3 gate, percent” value [3] is reported as 49.1%.

B4: 6D8 (other)
CAR: QITLKESGPTLVKPTQTLTLTCTFSGFSLSTRGVGVGWIRQPPGKALEWLALIYWNDDKRYSPSLQTRLTITKDTPKNQVVLTMTNMDPVDTATYYCARSNWGNWYFALWGRGTLVTVSSGGGGSGGGGSGGGGSGGGGSEIVLTQSPATLSLSPGERATLSCRASQSVSSYLAWYQQKPGQAPRLLIYDAFYRATGIPARFSGSGSGTDFTLTISSLEPEDFAVYYCQHRSNWPITFGQGTRLEIKTTTPAPRPPTPAPTIASQPLSLRPEACRPAAGGAVHTRGLDFACDIYIWAPLAGTCGVLLLSLVITKRGRKKLLYIFKQPFMRPVQTTQEEDGCSCRFPEEEEGGCELRVKFSRSADAPAYQQGQNQLYNELNLGRREEYDVLDKRRGRDPEMGGKPRRKNPQEGLYNELQKDKMAEAYSEIGMKGERRRGKGHDGLYQGLSTATKDTYDALHMQALPPR
notes: also called anti-DLL3 CAR with 6D8 scFv, on primary T cells
With B4 the Transduction efficiency [1] was 32.4%, the Transduction efficiency [2] was 34.8% and the “Rec-DLL3 gate, percent” value [3] was 32.4%.

B5: 7F9 (other)
CAR: EVQLVESGGGLVQPGGSLRLSCAASGFTFSSHDMHWVRQATGKGLEWVSAIGIAGDTYYSGSVKGRFTISRENAKNSLYLQMNSLRAGDTAVYYCARANWGEGAFDIWGQGTMVTVSSGGGGSGGGGSGGGGSGGGGSDIQMTQSPSSLSASVGDRVTITCRASQGISDYLAWYQQKPGKIPKLLIYAASTLQSGVPSRFSGSGSGTDFTLTISSLQPEDVATYYCQKYNSVPLTFGGGTKVEIKTTTPAPRPPTPAPTIASQPLSLRPEACRPAAGGAVHTRGLDFACDIYIWAPLAGTCGVLLLSLVITKRGRKKLLYIFKQPFMRPVQTTQEEDGCSCRFPEEEEGGCELRVKFSRSADAPAYQQGQNQLYNELNLGRREEYDVLDKRRGRDPEMGGKPRRKNPQEGLYNELQKDKMAEAYSEIGMKGERRRGKGHDGLYQGLSTATKDTYDALHMQALPPR
notes: also called anti-DLL3 CAR with 7F9 scFv, on primary T cells
With B5 the Transduction efficiency [1] was 42.2%, the Transduction efficiency [2] was 37.4% and the “Rec-DLL3 gate, percent” value [3] was 42.2%.

B6: 8E11 (other)
CAR: QVQLQESGPGLVKPSETLSLTCTVSGDSISNYYWTWIRQPPGKGLEWIGYIYYSGTTNSNPSLKSRVTVSLDTSKSQFSLNLSSVTAADTAVYYCARVFNRGFAFDIWGQGTMVTVSSGGGGSGGGGSGGGGSGGGGSEIVLTQSPGTLSLSPGERATLSCRASQRISNTYLAWYQQKPGQAPRLLIYGASSRATGIPDRFSGSGSGTDFTLTISRLEPEDFAAYYCQQYDTSPLTFGGGTKVEIKTTTPAPRPPTPAPTIASQPLSLRPEACRPAAGGAVHTRGLDFACDIYIWAPLAGTCGVLLLSLVITKRGRKKLLYIFKQPFMRPVQTTQEEDGCSCRFPEEEEGGCELRVKFSRSADAPAYQQGQNQLYNELNLGRREEYDVLDKRRGRDPEMGGKPRRKNPQEGLYNELQKDKMAEAYSEIGMKGERRRGKGHDGLYQGLSTATKDTYDALHMQALPPR
notes: also called anti-DLL3 CAR with 8E11 scFv, on primary T cells
B6 was tested, and the Transduction efficiency [1] was 39.1%, the Transduction efficiency [2] was 41.4% and the “Rec-DLL3 gate, percent” value [3] was 39.1%.

B7: 9D3 (other)
CAR: QVQLQESGPGLVKPSETLSLTCTVSDDSISNYYWSWIRQPPGKGLEWIGYIFYSGTTNHNPSLKSRLTISLDKAKNQFSLRLSSVTAADTAVYYCARVFNWGFAFDIWGQGTMVTVSSGGGGSGGGGSGGGGSGGGGSEIVLTQSPGTLSLSPGERATLSCRASQRISRTYLAWYQQKPGQAPRLLIYGASSRATGIPDRFTGSGSGTDFTLTISRLEPEDFAVYYCQQYGTSPLTFGGGTKVEINTTTPAPRPPTPAPTIASQPLSLRPEACRPAAGGAVHTRGLDFACDIYIWAPLAGTCGVLLLSLVITKRGRKKLLYIFKQPFMRPVQTTQEEDGCSCRFPEEEEGGCELRVKFSRSADAPAYQQGQNQLYNELNLGRREEYDVLDKRRGRDPEMGGKPRRKNPQEGLYNELQKDKMAEAYSEIGMKGERRRGKGHDGLYQGLSTATKDTYDALHMQALPPR
notes: also called anti-DLL3 CAR with 9D3 scFv, on primary T cells
For B7, the Transduction efficiency [1] was 52.4%, the Transduction efficiency [2] was 50.8% and the “Rec-DLL3 gate, percent” value [3] was 52.4%.

B8: 26C8 (other)
CAR: QVQLQESGPGLVKPSETLSLTCTVSDNSISNYYWSWIRQPPGKGLEWIAYIYYSGTTNYNPSLKSRVTISLDTSKNQFSLQLSSVTAADAAVYYCARVFHWGFAFDIWGQGTMVTVSSGGGGSGGGGSGGGGSGGGGSEIVLTQSPGTLSLSPGERATLSCRASQRVSNTYLAWYQQNPGQAPRLLIYGASSRATGIPDRFSGSGSGTDFTLTISRLEPEDFAVYYCQQYGTSPLTFGGGTKVEIKTTTPAPRPPTPAPTIASQPLSLRPEACRPAAGGAVHTRGLDFACDIYIWAPLAGTCGVLLLSLVITKRGRKKLLYIFKQPFMRPVQTTQEEDGCSCRFPEEEEGGCELRVKFSRSADAPAYQQGQNQLYNELNLGRREEYDVLDKRRGRDPEMGGKPRRKNPQEGLYNELQKDKMAEAYSEIGMKGERRRGKGHDGLYQGLSTATKDTYDALHMQALPPR
notes: also called anti-DLL3 CAR with 26C8 scFv, on primary T cells
With B8 the Transduction efficiency [1] was 48.9%, the Transduction efficiency [2] was 46.9% and the “Rec-DLL3 gate, percent” value [3] was 48.9%.
